{"source": "paper PMC4227788", "about": "“Architecture and ssDNA interaction of the Timeless-Tipin-RPA complex” (Nucleic Acids Research, 2014)", "key": {"[1]": {"biological_target": "T1, Tim-Tipin complex (mouse, UniProt Q9R1X4;Q91WA1 1-1134;1-278)", "T1 sequence 1": "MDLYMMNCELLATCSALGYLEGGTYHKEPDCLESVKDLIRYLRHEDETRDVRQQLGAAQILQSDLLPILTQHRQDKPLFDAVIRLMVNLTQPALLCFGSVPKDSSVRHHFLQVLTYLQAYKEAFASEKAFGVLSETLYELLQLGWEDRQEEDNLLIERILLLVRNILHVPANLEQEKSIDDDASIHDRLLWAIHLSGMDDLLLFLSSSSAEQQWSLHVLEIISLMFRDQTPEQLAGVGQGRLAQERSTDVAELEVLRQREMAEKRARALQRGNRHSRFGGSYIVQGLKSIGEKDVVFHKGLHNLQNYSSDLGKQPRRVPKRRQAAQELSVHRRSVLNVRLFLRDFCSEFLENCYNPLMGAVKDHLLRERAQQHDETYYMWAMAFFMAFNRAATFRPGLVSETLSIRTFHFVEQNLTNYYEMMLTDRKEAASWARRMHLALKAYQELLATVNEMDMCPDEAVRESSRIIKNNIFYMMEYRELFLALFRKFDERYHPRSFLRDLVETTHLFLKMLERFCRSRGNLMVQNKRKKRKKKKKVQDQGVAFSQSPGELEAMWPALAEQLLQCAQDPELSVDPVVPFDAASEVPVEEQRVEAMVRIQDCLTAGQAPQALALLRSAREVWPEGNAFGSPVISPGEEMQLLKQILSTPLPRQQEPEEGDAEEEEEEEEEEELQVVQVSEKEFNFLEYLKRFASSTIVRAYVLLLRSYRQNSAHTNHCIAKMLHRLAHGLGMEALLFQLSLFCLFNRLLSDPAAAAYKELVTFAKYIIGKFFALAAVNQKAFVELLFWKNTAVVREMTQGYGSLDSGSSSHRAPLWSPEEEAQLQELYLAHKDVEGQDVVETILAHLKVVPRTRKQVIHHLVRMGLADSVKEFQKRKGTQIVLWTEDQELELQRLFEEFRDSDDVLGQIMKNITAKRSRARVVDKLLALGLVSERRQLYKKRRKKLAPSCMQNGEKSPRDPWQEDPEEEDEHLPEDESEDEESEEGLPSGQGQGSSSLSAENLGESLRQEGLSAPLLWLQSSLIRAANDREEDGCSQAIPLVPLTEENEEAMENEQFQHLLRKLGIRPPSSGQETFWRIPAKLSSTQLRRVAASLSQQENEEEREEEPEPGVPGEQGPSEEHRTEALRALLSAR", "T1 sequence 2": "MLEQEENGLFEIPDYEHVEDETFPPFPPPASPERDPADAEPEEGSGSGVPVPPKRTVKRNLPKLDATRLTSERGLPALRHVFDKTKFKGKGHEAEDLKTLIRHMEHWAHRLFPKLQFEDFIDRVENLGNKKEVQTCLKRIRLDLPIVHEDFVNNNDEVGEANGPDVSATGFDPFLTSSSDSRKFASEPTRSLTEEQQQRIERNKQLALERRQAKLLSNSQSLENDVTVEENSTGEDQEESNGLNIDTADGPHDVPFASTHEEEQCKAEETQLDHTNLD", "test": "fluorescence anisotropy; Hill n = 1.2 ± 0.2; 30 C; 20 mM Hepes pH 7.5, 125 mM NaCl, 2 mM DTT, 0.01 mM zinc acetate (Buffer A); EMSA 15 min RT + 15 min 4 C; FA 15 min 30 C, 10 nM DNA", "conditions": "protein: recombinant; tags: His (Tim) and His-GST (Tipin), cleaved with 3C; copies: 1;1; label: 5'-FAM"}, "[2]": {"biological_target": "RPA70/32/14 (RPA70ABC/32D-WH/14) (mouse, UniProt Q8VEE4;Q99KL9;Q9CQ71 190-623;43-270;1-121)", "sequence (Q8VEE4 190-623, chain 1 of 3)": "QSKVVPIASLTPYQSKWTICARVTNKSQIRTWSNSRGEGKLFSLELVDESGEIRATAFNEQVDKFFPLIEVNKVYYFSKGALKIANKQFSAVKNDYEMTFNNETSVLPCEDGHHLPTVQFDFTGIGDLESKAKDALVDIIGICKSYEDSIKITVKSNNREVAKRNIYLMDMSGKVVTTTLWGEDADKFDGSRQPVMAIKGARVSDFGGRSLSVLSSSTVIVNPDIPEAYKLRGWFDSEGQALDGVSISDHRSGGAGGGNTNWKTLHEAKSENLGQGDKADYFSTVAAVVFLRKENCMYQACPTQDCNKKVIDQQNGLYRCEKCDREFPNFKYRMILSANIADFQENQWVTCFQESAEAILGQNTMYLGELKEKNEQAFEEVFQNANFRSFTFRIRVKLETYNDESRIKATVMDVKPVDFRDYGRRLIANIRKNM", "sequence (chain, as listed by the source, chain 2 of 3)": "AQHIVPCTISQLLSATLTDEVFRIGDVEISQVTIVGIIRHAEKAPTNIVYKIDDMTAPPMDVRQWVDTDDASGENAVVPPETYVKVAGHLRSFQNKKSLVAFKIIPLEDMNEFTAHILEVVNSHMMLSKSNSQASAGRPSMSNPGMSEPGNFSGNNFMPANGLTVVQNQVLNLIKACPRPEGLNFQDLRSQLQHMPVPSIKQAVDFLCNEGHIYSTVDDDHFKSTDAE", "sequence (Q9CQ71 whole entry, chain 3 of 3)": "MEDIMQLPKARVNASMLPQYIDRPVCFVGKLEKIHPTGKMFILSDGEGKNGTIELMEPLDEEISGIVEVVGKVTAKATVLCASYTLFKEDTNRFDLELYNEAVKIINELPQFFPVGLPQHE", "test": "EMSA; 1 RPA with excess DNA, up to 2 RPA at substoichiometric DNA; 20 mM Hepes pH 7.5, 125 mM NaCl, 2 mM DTT, 0.01 mM zinc acetate (Buffer A); EMSA 15 min RT + 15 min 4 C; FA 15 min 30 C, 10 nM DNA", "conditions": "protein: recombinant; tags: His; copies: 1;1;1; label: 5'-FAM"}}}
{"binder": "ACGCTGCCGAATTCTACCAGTGCCTTGCTA (ssDNA)", "note": "[30 nt FAM ssDNA]", "values": [{"measurement": "Kd", "setting": "[1]", "value": "1700 ± 200", "unit": "nM"}, {"measurement": "binding result", "setting": "[2]", "value": "binds"}]}
